We go through one molecule from patent US20260000759A1 (Genentech, published 2026).

The assay concerns the target T1, human oncostatin M receptor beta (OSMRβ) (human, UniProt Q99650 28-979).
T1 sequence (looked up): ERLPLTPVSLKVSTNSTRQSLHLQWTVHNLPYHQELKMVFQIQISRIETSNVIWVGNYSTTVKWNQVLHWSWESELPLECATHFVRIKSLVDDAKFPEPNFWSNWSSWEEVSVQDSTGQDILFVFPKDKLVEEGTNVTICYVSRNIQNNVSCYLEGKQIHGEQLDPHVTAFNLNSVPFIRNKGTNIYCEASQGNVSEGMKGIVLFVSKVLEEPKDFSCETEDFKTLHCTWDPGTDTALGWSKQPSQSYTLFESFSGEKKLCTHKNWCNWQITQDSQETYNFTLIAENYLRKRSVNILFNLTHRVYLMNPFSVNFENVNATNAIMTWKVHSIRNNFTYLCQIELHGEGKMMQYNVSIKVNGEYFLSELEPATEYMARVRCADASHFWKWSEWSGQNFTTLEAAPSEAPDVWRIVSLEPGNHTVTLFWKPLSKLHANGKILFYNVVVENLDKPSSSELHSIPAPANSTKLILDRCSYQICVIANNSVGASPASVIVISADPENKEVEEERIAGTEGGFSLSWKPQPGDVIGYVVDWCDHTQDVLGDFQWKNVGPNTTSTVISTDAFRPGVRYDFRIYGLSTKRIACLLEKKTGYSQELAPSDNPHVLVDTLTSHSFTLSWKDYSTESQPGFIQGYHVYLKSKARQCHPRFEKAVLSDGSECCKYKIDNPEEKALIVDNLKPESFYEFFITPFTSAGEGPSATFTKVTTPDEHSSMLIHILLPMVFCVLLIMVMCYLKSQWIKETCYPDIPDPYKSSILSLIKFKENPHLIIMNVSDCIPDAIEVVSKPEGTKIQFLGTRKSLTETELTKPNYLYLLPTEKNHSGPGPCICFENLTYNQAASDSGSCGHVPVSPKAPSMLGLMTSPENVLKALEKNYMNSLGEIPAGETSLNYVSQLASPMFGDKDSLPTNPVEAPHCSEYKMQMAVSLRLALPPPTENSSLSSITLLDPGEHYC
Description: cell-based or functional assay.

B1: vixarelimab (antibody, human IgG4 S228P, lambda, N297Q, V domains shown)
VH: QVQLVQSGAEVKKPGASVKVSCKASGYTFTSYEINWVRQATGQGLEWMGWMNPNSGYTGYAQKFQGRVTMTRDTSISTAYMEMSSLRSEDTAVYYCARDIVAANTDYYFYYGMDVWGQGTTVTVSS
VL: QSVLTQPPSASGTPGQRVTISCSGSNSNIGSNTVNWYHQLPGTAPKLLIYNINKRPSGVPDRFSGSKSGSSASLAISGLQSEDEADYYCSTWDDSLDGVVFGGGTKLTVLG
In the case of B1, the “Mean of IC50, inhibition of OSM-induced STAT3 phosphorylation (pSTAT3 Tyr705, MSD); IPF-derived lung fibroblasts, [OSM] 1 ng/mL” value worked out at 12.4 ng/mL; the “Mean of IC50, inhibition of OSM-induced STAT3 phosphorylation (pSTAT3 Tyr705, MSD); IPF-derived lung fibroblasts, [OSM] 10 ng/mL” value is 56.1 ng/mL; the “Mean of IC50, inhibition of OSM-induced STAT3 phosphorylation (pSTAT3 Tyr705, MSD); normal keratinocytes, [OSM] 10 ng/mL” value was determined as 4.95 ng/mL; the “Mean of IC50, inhibition of OSM-induced STAT3 phosphorylation (pSTAT3 Tyr705, MSD); normal keratinocytes, [OSM] 100 ng/mL” value amounted to 45 ng/mL. The “Mean of IC50, inhibition of OSM-induced STAT3 phosphorylation (pSTAT3 Tyr705, MSD); normal lung fibroblasts, [OSM] 1 ng/mL” value is 13 ng/mL and the “Mean of IC50, inhibition of OSM-induced STAT3 phosphorylation (pSTAT3 Tyr705, MSD); normal lung fibroblasts, [OSM] 10 ng/mL” value came out at 88.2 ng/mL.
